Measurements from patent US20220296727A1, “Immunoconjugate” (DendroCyte BioTech Pty Ltd, priority 2019, published 2022).

What was measured:
HL-60 = assay: Cytotoxicity assay on HL-60 AML cell line; assay type: cell-based
Method: (§1) Kinetic analysis was performed as above.
(§2) DCR-2 and an isotype control mAb were conjugated to a PBD dimer toxin, to assess potential cytotoxicity. The cytotoxicity of DCR-2-PBD and the isotype-PBD were tested against CD300f+ and CD300f− cell lines and the results are shown in FIG. 6 and Table 2.

THP-1 = assay: Cytotoxicity assay on THP-1 AML cell line; assay type: cell-based
Method: as §1, §2

[1] = system: HSPC colony forming units; assay: Colony forming unit toxicity assay, cord blood HSPC; assay type: cell-based, human
Method: CFU colonies were plated at 2×10^4 cells/well in semi-solid methylcellulose medium (MethoCult Classic, Stemcell Technologies) in a 24 well plate (Corning, N.Y., USA), were cultured at 37° C. in 5% CO2 for 14 days and counted via microscopy. Whole cord blood PBMC was used. CD34^+ progenitors were continuously exposed to multiple concentrations of DCR-2 with equal concentrations of a secondary goat anti mouse antibody conjugated to PBD dimer. As a control, only the secondary PBD dimer conjugated antibody was used as above.
(§3) CB cells, plated at 2×10^4 cells/well in semi-solid methylcellulose medium (MethoCult Classic, Stemcell Technologies) in a 24 well plate (Corning, N.Y., USA), were cultured at 37° C. in 5% CO2 for 14 days when colony forming units (CFU) were scored. DCR-2-PBD or isotype-PBD was added to each well for continuous exposure. Three CB samples were tested with duplicate wells performed in each experiment.

primary AML = assay: Colony forming unit assay, primary AML samples; assay type: cell-based, human
Method: as §3
Two primary AML samples were tested: CRGH1 with low CD300f expression (MFI ratio of 2.6) and CRGH9 with a high CD300f expression (MFI 109.9) (FIG. 9).

HL-60 cell line = assay: Exposure time (kinetic) cytotoxicity on HL-60; assay type: cell-based
Method: as §1
The exposure time required for DCR-2-PBD to cause cytotoxicity on the HL-60 cell line was assessed and the results are shown in FIG. 10. The viability of HL-60 cells was reduced to less than 10% within 5 hours of exposure to DCR-2PBD. At 12 hours, greater than 98% of HL-60 proliferation was inhibited while at 24 and 96 hours inhibition was greater than 99%.

[2] = system: monocyte-derived dendritic cells (MoDC); assay: Monocyte-derived dendritic cell (MoDC) toxicity assay; assay type: cell-based, human; conditions: 200 pmol, 72 hours
Method: (§4) PBMC were incubated in complete RPMI media with or without DCR-2-PBD (200 pmol). After 12 hours, washed cells were incubated for a further 12 hours with or without LPS then phenotyped for the expression of activation markers on DC populations. MoDC were derived from CD14+ monocytes as described previously (Fromm et al. J Leukoc Biol. 2020; 107(2):323-339). DCR-2-PBD or isotype-PBD (200 pmol) were added for 72 hours prior to enumeration of live cells by flow cytometry.

dendritic cells = assay: Activation marker expression on dendritic cells after LPS; assay type: cell-based, human; conditions: HLA-DR, CD11c, CD80, CD83; 200 pmol
Method: The activity of DCR-2PBD on the upregulation of activation markers on DC was measured by incubating whole PBMC with DCR-2PBD or no antibody for […] before washing, followed by 12 hours of LPS stimulation. Control DC were not exposed to DCR-2PBD or LPS. Myeloid DC were gated out by excluding dead cells, Lin^+(CD3, CD20, CD19, CD56, CD14), then gating on HLA-DR^+ and CD11c^+ cells. The activation markers CD80 and CD83 were assessed via flow cytometry. The changes on activation were determined by comparing activated DC incubated with or without DCR-2PBD compared to inactivated DC.
as §4

primary AML cells = assay: Primary AML xenograft in NSG mice; assay type: in vivo, mouse; conditions: single dose 300 ug/kg
Method: For primary AML xenografts, NSG mice were irradiated with 150cGy 24 hours before 8×10^6 AML cells from CRGH11 (sample 10 Table S1) were injected iv. Once engraftment was established (>1% human CD45 positive events in PB), mice were given DCR-2-PBD or isotype-PBD. Mice were euthanised 6 days later and the BM was harvested for enumeration and surface marker analysis by flow cytometry.

B1: DCR-2PBD: anti-CD300f mAb DCR-2 conjugated to pyrrolobenzodiazepine dimer via Cathepsin B-cleavable linker MA-PEG4-VA-PBD; drug to antibody ratio 3.3 (conjugate)
VH: MESGGGLVQPGGPLKLSCAASGFGFSGSWMSWVRQAPGKGLEWIGQINPDSSTINYTPSLKDKFIISRDNAKNTLYLQINKVRSEDTALYYCARRGFFEGYSAWFAYW
VL: ILMTQTPKFLLVSAGDRVTITCKASQSVSNDVAWYQQKPGQSPSLLIYYASNRNTGVPDRFTGSGYETDFTFTISTVQAEDLAVYFCQQDYTSPWTFGGG
IC50 (HL-60): 0.00544 nM
IC50 (THP-1): 0.0294 nM
reduction in total CFUs ([1]; 7.84 pM (p=0.0033)): Significant reductions
inhibition of all major CFU subtypes ([1]; 32.9 pM): inhibited
reduction in total CFUs ([1]; 39.21 pM (p<0.0001)): Significant reductions
inhibition of all major CFU subtypes ([1]; 196.1 pM): inhibited
reduction in total CFUs ([1]; 196.1 pM (p<0.0001)): Significant reductions
toxicity against primary AML CFU (primary AML; CRGH1 (low CD300f expression), 196.1 pM): Significant toxicity
toxicity against primary AML CFU (primary AML; CRGH9 (high CD300f expression), all dose levels (P<0.001)): Significant toxicity
HL-60 proliferation inhibited (HL-60 cell line; 12 hours exposure): greater than 98%
HL-60 proliferation inhibition (HL-60 cell line; 24 hours exposure): greater than 99%
HL-60 proliferation inhibition (HL-60 cell line; 96 hours exposure): greater than 99%
time dependent cytotoxicity (HL-60 cell line; incubation up to 96 hours): rapid cytotoxicity
viability of HL-60 cells (HL-60 cell line; within 5 hours of exposure): less than 10%
effect on MoDC survival [2]: little effect
up-regulation of activation markers on dendritic cells after LPS (dendritic cells): does not prevent up-regulation of activation markers
AML cells as mean percentage of total cells in BM (primary AML cells): 12.32%
human AML cells in BM, mean total enumeration (primary AML cells): 0.37×10^6
